The DeepSol protein solubility set

Assay: soluble on expression in E. coli; label from the status in PepcDB or PDB records

Sequence	soluble on expression in E. coli
MTTYLIIGANRVGQLVARQLATESATVRLLHDGKETLPSDLATQVTELTGDLTQEATYTAALQDQPIIFSALTGMDVDLAFEALFDAQYHQRLTFQRFVMLSTAGVDQEVTGDLAYPGITDVAEYLKQQRYAAKLVDEAEFPYTILRPVTLADSPRRDPQIIKEGAAVPAGTVSRETVAQVAVSLLQAGGADYQSLAICLEHHHHHH	not soluble
VTSSLPTVQRVIQNALEVSQLKYSQHPRPGGAPPALIVELPGERKLKINTILSVGEHSVRVEAFVCRKPDENREDVYRFLLRRNRRLYGVAYTLDNVGDIYLVGQMALSAVDADEVDRVLGQVLEVVDSDFNALLELGFRSSIQREWQWRLSRGESLQNLQAFAHLRPTTMQSAQRDEKELGG	soluble
MGSDKIHHHHHHMIKNQWYVVLSSRELKKGQLIGVTRFGEKLAFWRDSNGKVHCISDICCHRGASISHGKVLSNGERVMCPFHGFEYDSQGRVRTIPANGRNTPVPENFRVKSYPTYELADFIWIWYGDREPEKPPKYFDDITDELVYTEFKEVWNVHYSRAIENQLDPIHLPFVHYNTIGRGNRTVVDGPIVEWKDDEMFYFYVFNRIDDGTPARKPEEMDPKRKSKVYLEFKFPNIWQNHISEKIRVTAAFTPIDDDHTMIYLRFYVGLTGIKFLDKLIAVLGKPFNKIVLHQDKRVVETQIPKRSELRMGENLIPGDAPILEYRKKREALKSMQQNNRVK	not soluble
MQPAVYILASQRNGTLYIGVTSDLVQRIYQHREHLIEGFTSRYNVTMLVWYELHPTMESAITREKQLKKWNRAWKLQLIEENNVSWQDLWFDII	not soluble
MSDLSSSLCQLNWLIAKGGLNTVQEIEVPENPNIVGSPVAPAHEGKRRRIFDGADKPPYSYSQLIRLAIEDTPDKKCTLAEIYSFIAHNFQFYRENRNSSWKNSIRHNLSLNKQFSRIEKTDGDRRGWWVCVDPPAKKPRILKGSPVRVNPIYEHLYHNKQDMPNFTPPPEDPFLSEINGNVHELTEHEIRDLNLFESYDLNSSFRDVYNQIFEKSTSPNGKKQAAQIDWLKISLEAAGLDYHDEQELQEVDTDKLKDYVYNGFPAECDSDVSTPRTDSGRHSSSDSVLSATLQPVNNDSDDEYDWDKLL	not soluble
MGSDKIHHHHHHMSQMSFSDFEYAGKRKQTRRERFLAEMDQVVPWAGLLGLIEPFYPKAGGGRKPYPLETMLRIHLLQNWFSLSDPAMEEALYEITPMRQFAHLTLSAPIPEDTTIMNFRHLLEKHQLAPAILAVINGYLQEKGLSLRQGTIVDATIIHVPSSTKNKDGERDPEMHQTKKGNQYFFGMKAHISADVESGLVHHVHGTAANVADVTQVAELLHGEENAVYADAGYTGVEKREEHENRDVIWQIAARRSTYSKLNKRSLLYKAKRKIEYCKAQTRAKVEHPFRVIKRQFGYVKVRFRGLMKNTAQLTTLFALSNLWMARKRLMGLGELRI	not soluble
MAHHHHHHMSATPKQPSTATTSISSDEKWDHSLETLIRKSTIGFASGILPGLLLARSPAARSAIIALCTGVGSGIAYGEARYLFDHDIMFDKRHLIQVQVVGGSSSQQSGAQKSME	not soluble
MHEFRDYYGHRVRLAFADHPFSPSPGHVWVICRYGGRWLLTDHPRRGLEFPGGKVEEGETAAEAAAREVMEETGGIVGRLEYIGQYKVEPDIVKNIYFADIAALVERGSYLETNGPVLLEALPDDIRSDQRFSYFMKDDVLSLALAKLKQRGLID	not soluble
MGSDKIHHHHHHMGEVIKNRYEFVVLFDVENGNPNGDPDAGNMPRIDPESGLGIVTDVCLKRKIRNYIETVKEDEDGYKIYIKENVPLNRSDREACKSLGINDDEDKKVTEALKKLKKSDKDADIKLRDYMCRNFYDIRAFGAVMTTFVKASLNCGQVRGPVQLGFARSIDPVISQEVTITRVAITTEKDAENKSNEMGRKSIVPYGLYRVEGYISANLARKVTGFSEEDLELLWDAVINMFENDHSAARGKMAVRELIVFKHSKELGDCPAYKLFDAVKVQKNDDIQYPRKYQDYTVTINDDEIPDTVEVKRMI	not soluble
GQKESQTGKGMKIVTSFYPIYAMVKEVSGDLNDVRMIQSSSGIHSFEPSANDIAAIYDADVFVYHSHTLESWAGSLDPNLKKSKVKVLEASEGMTLERVPGLEDVEAGDGVDEKTLYDPHTWLDPEKAGEEAQIIADKLSEVDSEHKETYQKNAQAFIKKAQELTKKFQPKFEKATQKTFVTQHTAFSYLAKRFGLNQLGIAGISPEQEPSPRQLTEIQEFVKTYKVKTIFTESNASSKVAETLVKSTGVGLKTLNPLESDPQNDKTYLENLEENMSILAEELK	soluble
MTKCPKCKKIMLTKELDKNMRVCMNCDYHFPMNAKQRIESLMDEQSFEEFNQGMLSENPLGFPGYLEKLEKDREKTSLNEAVVTGKGTIGGHPAVVAVMDSSFRMGSMGSVVGEKITLAIEKAKADKVPFIIFTASGGARMQEGVLSLMQMAKTSSALKLFSEEQGLIISVMTHPTTGGVSASFASLGDYNFAEPGALIGFAGRRIIEQTIGEKLPEDFQTAEFLLKHGQLDAVIHRDDMKKTLENLLDMHQTGGDIEWLQDLEHHHHHH	not soluble
MGSDKIHHHHHHMSDVLSQEEINQLIEALMKGELKEEDLLKEEEEKKVKPYDFKRPSKFSKEQLRTFQMIHENFGRALSTYLSGRLRTFVDVEISIDQLTYEEFIRSVMIPSFIVIFTGDVFEGSAIFEMRLDLFYTMLDIIMGGPGENPPNRPPTEIETSIMRKEVTNMLTLLAQAWSDFQYFIPSIENVETNPQFVQIVPPNEIVLLVTASVSWGEFTSFINVCWPFSLLEPLLEKLSDRFWMMGRKPEKVEERMEELRKASQKIPVTVQAVIGETELRLKEILDLEVGDVIRLGTHYKDEIRIDVEGRPKFRGIPGVFKGKYAVKVTGEFTNGGEYE	not soluble
MGSDKIHHHHHHVPATYPLSSCIEWQFAEAGDLAARVRAAKADGFDLVEFHLWRDKPVEAIGAALADTGVALTGVCVDPRRSIVDPAERAEMVEAVRETIAATAPLGKPPLIVASGFRVEGMSEEDHFANAVAALKQAAALAEDAGVTLLLEPLNTRLFSAMYLVSTTLGLDLVEAVGSPNLRLLYDVWHSAVMGEDIADVLAGRIGLVAHVQVADMEDRNEPGTGTVDWAHVMNTLKSLGYQGSIGMEYFPTLPMDQSLKLTRETLAL	not soluble
MAHHHHHHMKVENSKMEVKREQSYSNEDEEINEEDLNWWEQENLRIAMKGERRWETLAHNGVLFPPEYEPHGIPIFYDGREFKMTPEEEEVATMFAVMKEHDYYRMEVFRRNFFESWREILGKRQHPIRRLELCDFEPIYQWYLVQREKKLSRTKEEKKAIKEKQDAEAEPYRYCVWDGRREQVANFRVEPPGLFRGRGKHPLMGKLKVRVQPEDITINIGETAEVPVPPAGHKWAAVQHDHTVTWLAMWRDNVAGNMKYVMLAPSSSVKGQSDMVKFEKARKLKDKVDDIRASYMEAFKSNDLHVAQRAVAMYFIDRLALRVGNEKGEDEADTVGCCSLRVEHIQLMPDNIVRFDFLGKDSIRYQNDVAVLPEVYALLQRFTCRKSPGMDIFDQLNPTQLNDHLKSFMDGLSAKVFRTYNASITLDRWFKEKPVDPKWSTADKLAYFNKANTEVAILCNHQKSVSKNFKLQMMQLTTKSEYTRKTLELLEKAEVTAKKKSVEEAAKEFLEEQDRMQREWLESYGTEEQKKEFEEIVAKRAAPRVRSEKKSSSGTKKAKSASGKTRAATKKKSAKKSGKASSKKAARKSSKKAPKRSKEEDEDDVPLMSMAAKTKKTAGVKRQRAVKVASDDDDVPLAALRV	not soluble
MSLVLNDLLICCRQLEHDRATERKKEVEKFKRLIRDPETIKHLDRHSDSKQGKYLNWDAVFRFLQKYIQKETECLRIAKPNVSASTQASRQKKMQEISSLVKYFIKCANRSK	not soluble
MMSTPALRPYLPEDAAVTAAIFVASIEQLTADDYSEEQQEAWASAADDEAKFAARLSGQLTLIATLQGVPVGFASLKGPDHIDMLYVHPDYVGRDVGTTLIDALEKLAGARGALILTVDASDNAAEFFAKRGYVAKQRNTVSINGEWLANTTMTKSLADSAAPGASS	soluble
MVEELFYKKILKNLFSDPVQITLWNGETIQYGEGEPQFHVTFHKPLSKKEIAKDPSIAFGEAYMNGDLEIEGNLEKAIQSIYKRQDSFLGDSKLQYFKSKWNFSKQKNKDDIAHHYDIGNDFYKLWLDETMTYSCAYFQNEQDSLTTAQHNKVNHILKKLNLQKGDTLLDIGCGWGELITAAAKQYGVKAMGVTLSEEQYAKASERIKQEGLTDLVEVSLLDYRDIKNQKFDKIVSVGMIEHVGKDNITQYFETVNTLLNDGGISLLHCITSPANGGATNGWIEKYIFPGGYVPAVNELITNMTNEQFFIVDVESLRRHYGKTLQHWARNFENVMEEVRKTKDERFIRMWRLYLNACAASFFTGNIDLHQFVFTKGINDTIPMTRSYMYE	not soluble
MLYANKTVGNTSYKLSKKSIKEQTMLQKNKDLLIEIATRDVKSVFAYFKTTRDGLSMKEAQKRIQVYGRNELTSKRALLAEVMMKLGGMIPGFSKQRVCDELQRETITVSRVECSSSTGLNSELKMMEIPVQELVPGDMIFLSAGDAVPADVRIIYADDLLVNESVLTGNEANIEKFESCYHLERKRFIPLKRMKDYNPLELENVCFKGSHIVSGNAKAIVVSTGKNTYSGILHTCCSRTS	not soluble
GMMNKPAPRELEVIRSTYITPHMLRITLGGAGLAGFPADQESAYIKLLFPQAGERPLMRTYTIRQQRDDEIDVDFVLHDTDGPASSWAKTAQVGELIQIGGPGLKKLINFEADWFLLAGDMTALPAISVNLAKLPNNAVGYAVIEVLSEADIQPLVHPEHVELHWVINPEADPEGRPLVERIAQLPWLAGEPAVWIACEFNSMRALRRHFKQAHALPKSHFYTSSYWKIGCNEGEHKLVKQEDEQLENGASV	soluble
MRGSHHHHHHGSTTFNIQDGPDFQDRVVNSETPVVVDFHAQWCGPCKILGPRLEKMVAKQHGKVVMAKVDIDDHTDLAIEYEVSAVPTVLAMKNGDVVDKFVGIKDEDQLEAFLKKLIG	soluble
MGGPGETQIEADRRLLQDRIVKLEKELEQVVRTRQLHRAKRRKVPHPIVALVGYTNAGKSTLFNRITGAGVLAEDMLFATLDPTLRRMKLPHGRTVILSDTVGFISDLPTHLVAAFRATLEEVLEADLVLHVRDMSDPDNAAQSADVLRILGDLGIDEKEAEKRIIEVWNKVDRLEPEAHDAIMQRAEGRSDIRAVSAITGEGVDALMEEISKRLSGVLTETTVVLSVEQLPLISWVYSNSIVDNREDHEDGSVALDVRLSEAQAVELERKLGKTAGREREDWERAAALEHHHHHH	not soluble
GLLAIFIVFAISWGALVEITPLIFQKQTTESVENLRVYTPLEMEGRDIYIREGCNVCHSQMVRPFRSETERYGHYSVAGESVWEHPFLWGSKRTGPDLARVGGRYSDEWHRVHLLDPRELVPESNMPGFPWLAENVLDGKLTQKKLEVFRDQFGVPYEDETIANAAKEVEGKTEMDAIIAYLQSLGH	not soluble
MSLKCIAIDLDGTLLNKESVISAENREAIKRAVDAGILVTICTGRATFDVKALLDDLDIPIIAANGGTIHDTGYRLISRTLMDQEAGKAIADYLLSKNIYFEVYTDDHLLSPFDGEAKLHAELDILKSANPNEQTDDLWQGAMTQFKQFGIKPIPHIESVFDGGENIYKLLCFSFDMDKLKQAKEELKHHKKLAQTSSGKHIIEILPASSGKGRALTKLADIYGIETQDIYAIGDSPNDLSMFEVAGHRIAMENAIDELKEKSTFVTKSNDENGVAYFIDQLLSGQYAEGHHHHHH	soluble
